# Reference: paper PMC7954794 (2021)
# B1: S. cerevisiae Abp1 (full length; SH3 domain 535-592 mutated) / Hua2 (parent complex)
# chain 1: MALEPIDYTTHSREIDAEYLKIVRGSDPDTTWLIISPNAKKEYEPESTGSSFHDFLQLFDETKVQYGLARVSPPGSDVEKIIIIGWCPDSAPLKTRASFAANFAAVANNLFKGYHVQVTARDEDDLDENELLMKISNAAGARYSIQTSSKQQGKASTPPVKKSFTPSKSPAPVSKKEPVKTPSPAPAAKISSRVNDNNDDDDWNEPELKERDFDQAPLKPNQSSYKPIGKIDLQKVIAEEKAKEDPRLVQKPTAAGSKIDPSSDIANLKNESKLKRDSEFNSFLGTTKPPSMTESSLKNDDDKVIKGFRNEKSPAQLWAERKAKQNSGNAETKAEAPKPEVPEDEPEGEPDVKDLKSKFEGLAASEKEEEEMENKFAPPPKKSEPTIISPKPFSKPQEPVKAEEAEQPKTDYKKIGNPLPGMHIEADNEEEPEENDDDWDDDEDEAAQPPLPSRNVASGAPVQKEEPEQEEIAPSLPSRNSIPAPKQEEAPEQAPEEEIEEEAEEAAPQLPSRSSAAPPPPPRRATPEKKPKENPWATAEYDYDAAEDNELTFVENDKIINIEFVDDDWWLGELEKDGSKGLFPSNYVSLGN
# chain 2: MQQTKFGKMYLDHDSVVEYSEDEIVEADRITLGYKKRLSMIENQMRHLLEDFSLDVQQIEPILADLQKYYDAFLQLLQKRNKSLQCKRSTHQPVPSPMNSQTSTNAKVNLSGKLMKFQLNSVQKFDEENILRILQNKIEFEHYFQIDKGKKQKVLLLAVYQCLNGPTRLHKVLNIEGIIHNNSIRTILGKQVSSSKWTVFLYDVKLVLLAHRQDVPNLETSKMIVRYGDLFPCALYFKDHTAY
# Variants of: B1
# Assay: DHFR protein-fragment complementation in yeast (Abp1-DHFR F[1,2] x partner-DHFR F[3]), deep mutational scanning, second methotrexate selection vs reference; S. cerevisiae, DHFR-PCA selection in liquid with methotrexate at 30 C, two 72 h selections (the score uses the second); reference = the pre-selection culture
row,Variant,screen value
1,chain 1 MALEPIDYTTHSREIDAEYLKIVRGSDPDTTWLIISPNAKKEYEPESTGSSFHDFLQLFDETKVQYGLARVSPPGSDVEKIIIIGWCPDSAPLKTRASFAANFAAVANNLFKGYHVQVTARDEDDLDENELLMKISNAAGARYSIQTSSKQQGKASTPPVKKSFTPSKSPAPVSKKEPVKTPSPAPAAKISSRVNDNNDDDDWNEPELKERDFDQAPLKPNQSSYKPIGKIDLQKVIAEEKAKEDPRLVQKPTAAGSKIDPSSDIANLKNESKLKRDSEFNSFLGTTKPPSMTESSLKNDDDKVIKGFRNEKSPAQLWAERKAKQNSGNAETKAEAPKPEVPEDEPEGEPDVKDLKSKFEGLAASEKEEEEMENKFAPPPKKSEPTIISPKPFSKPQEPVKAEEAEQPKTDYKKIGNPLPGMHIEADNEEEPEENDDDWDDDEDEAAQPPLPSRNVASGAPVQKEEPEQEEIAPSLPSRNSIPAPKQEEAPEQAPEEEIEEEAEEAAPQLPSRSSAAPPPPPRRATPEKKPKENPWATAEYDYDAAEDNELTFVENDKIIDIEFVDDDWWLGELEKDGSKGLFPSNYVSLGN [chain 1 N561D],"-0.211 DMS score: mean over two replicates of log2(f_test/f_ref + 0.5)/ln 2, minus the synonymous-codon median (not a log2 …"
2,chain 1 MALEPIDYTTHSREIDAEYLKIVRGSDPDTTWLIISPNAKKEYEPESTGSSFHDFLQLFDETKVQYGLARVSPPGSDVEKIIIIGWCPDSAPLKTRASFAANFAAVANNLFKGYHVQVTARDEDDLDENELLMKISNAAGARYSIQTSSKQQGKASTPPVKKSFTPSKSPAPVSKKEPVKTPSPAPAAKISSRVNDNNDDDDWNEPELKERDFDQAPLKPNQSSYKPIGKIDLQKVIAEEKAKEDPRLVQKPTAAGSKIDPSSDIANLKNESKLKRDSEFNSFLGTTKPPSMTESSLKNDDDKVIKGFRNEKSPAQLWAERKAKQNSGNAETKAEAPKPEVPEDEPEGEPDVKDLKSKFEGLAASEKEEEEMENKFAPPPKKSEPTIISPKPFSKPQEPVKAEEAEQPKTDYKKIGNPLPGMHIEADNEEEPEENDDDWDDDEDEAAQPPLPSRNVASGAPVQKEEPEQEEIAPSLPSRNSIPAPKQEEAPEQAPEEEIEEEAEEAAPQLPSRSSAAPPPPPRRATPEKKPKENPWATAEYDYDAAEDKELTFVENDKIINIEFVDDDWWLGELEKDGSKGLFPSNYVSLGN [chain 1 N549K],"-0.863 DMS score: mean over two replicates of log2(f_test/f_ref + 0.5)/ln 2, minus the synonymous-codon median (not a log2 …"
3,chain 1 MALEPIDYTTHSREIDAEYLKIVRGSDPDTTWLIISPNAKKEYEPESTGSSFHDFLQLFDETKVQYGLARVSPPGSDVEKIIIIGWCPDSAPLKTRASFAANFAAVANNLFKGYHVQVTARDEDDLDENELLMKISNAAGARYSIQTSSKQQGKASTPPVKKSFTPSKSPAPVSKKEPVKTPSPAPAAKISSRVNDNNDDDDWNEPELKERDFDQAPLKPNQSSYKPIGKIDLQKVIAEEKAKEDPRLVQKPTAAGSKIDPSSDIANLKNESKLKRDSEFNSFLGTTKPPSMTESSLKNDDDKVIKGFRNEKSPAQLWAERKAKQNSGNAETKAEAPKPEVPEDEPEGEPDVKDLKSKFEGLAASEKEEEEMENKFAPPPKKSEPTIISPKPFSKPQEPVKAEEAEQPKTDYKKIGNPLPGMHIEADNEEEPEENDDDWDDDEDEAAQPPLPSRNVASGAPVQKEEPEQEEIAPSLPSRNSIPAPKQEEAPEQAPEEEIEEEAEEAAPQLPSRSSAAPPPPPRRATPEKKPKENPWATAEYDYDAAEDNELTFVENDKIINIEFVDDDWWLGELEKDGVKGLFPSNYVSLGN [chain 1 S579V],"-0.988 DMS score: mean over two replicates of log2(f_test/f_ref + 0.5)/ln 2, minus the synonymous-codon median (not a log2 …"
4,chain 1 MALEPIDYTTHSREIDAEYLKIVRGSDPDTTWLIISPNAKKEYEPESTGSSFHDFLQLFDETKVQYGLARVSPPGSDVEKIIIIGWCPDSAPLKTRASFAANFAAVANNLFKGYHVQVTARDEDDLDENELLMKISNAAGARYSIQTSSKQQGKASTPPVKKSFTPSKSPAPVSKKEPVKTPSPAPAAKISSRVNDNNDDDDWNEPELKERDFDQAPLKPNQSSYKPIGKIDLQKVIAEEKAKEDPRLVQKPTAAGSKIDPSSDIANLKNESKLKRDSEFNSFLGTTKPPSMTESSLKNDDDKVIKGFRNEKSPAQLWAERKAKQNSGNAETKAEAPKPEVPEDEPEGEPDVKDLKSKFEGLAASEKEEEEMENKFAPPPKKSEPTIISPKPFSKPQEPVKAEEAEQPKTDYKKIGNPLPGMHIEADNEEEPEENDDDWDDDEDEAAQPPLPSRNVASGAPVQKEEPEQEEIAPSLPSRNSIPAPKQEEAPEQAPEEEIEEEAEEAAPQLPSRSSAAPPPPPRRATPEKKPKENPWATAEYDYDKAEDNELTFVENDKIINIEFVDDDWWLGELEKDGSKGLFPSNYVSLGN [chain 1 A545K],"0.224 DMS score: mean over two replicates of log2(f_test/f_ref + 0.5)/ln 2, minus the synonymous-codon median (not a log2 …"
5,chain 1 MALEPIDYTTHSREIDAEYLKIVRGSDPDTTWLIISPNAKKEYEPESTGSSFHDFLQLFDETKVQYGLARVSPPGSDVEKIIIIGWCPDSAPLKTRASFAANFAAVANNLFKGYHVQVTARDEDDLDENELLMKISNAAGARYSIQTSSKQQGKASTPPVKKSFTPSKSPAPVSKKEPVKTPSPAPAAKISSRVNDNNDDDDWNEPELKERDFDQAPLKPNQSSYKPIGKIDLQKVIAEEKAKEDPRLVQKPTAAGSKIDPSSDIANLKNESKLKRDSEFNSFLGTTKPPSMTESSLKNDDDKVIKGFRNEKSPAQLWAERKAKQNSGNAETKAEAPKPEVPEDEPEGEPDVKDLKSKFEGLAASEKEEEEMENKFAPPPKKSEPTIISPKPFSKPQEPVKAEEAEQPKTDYKKIGNPLPGMHIEADNEEEPEENDDDWDDDEDEAAQPPLPSRNVASGAPVQKEEPEQEEIAPSLPSRNSIPAPKQEEAPEQAPEEEIEEEAEEAAPQLPSRSSAAPPPPPRRATPEKKPKENPWATAEYDYDAAEDVELTFVENDKIINIEFVDDDWWLGELEKDGSKGLFPSNYVSLGN [chain 1 N549V],"1.32 DMS score: mean over two replicates of log2(f_test/f_ref + 0.5)/ln 2, minus the synonymous-codon median (not a log2 …"
